{"source": "ChEMBL document CHEMBL1143427", "about": "“Interactions of ceftobiprole with beta-lactamases from molecular classes A to D” (Antimicrob Agents Chemother, 2007)", "proteins": {"B1": {"name": "Beta-lactamase (Staphylococcus aureus), P00807 (protein)", "chain": "MKKLIFLIVIALVLSACNSNSSHAKELNDLEKKYNAHIGVYALDTKSGKEVKFNSDKRFAYASTSKAINSAILLEQVPYNKLNKKVHINKDDIVAYSPILEKYVGKDITLKALIEASMTYSDNTANNKIIKEIGGIKKVKQRLKELGDKVTNPVRYEIELNYYSPKSKKDTSTPAAFGKTLNKLIANGKLSKENKKFLLDLMLNNKSGDTLIKDGVPKDYKVADKSGQAITYASRNDVAFVYPKGQSEPIVLVIFTNKDNKSDKPNDKLISETAKSVMKEF"}, "B2": {"name": "Beta-lactamase SHV-1 (Klebsiella pneumoniae), P0AD64 (protein)", "chain": "MRYIRLCIISLLATLPLAVHASPQPLEQIKLSESQLSGRVGMIEMDLASGRTLTAWRADERFPMMSTFKVVLCGAVLARVDAGDEQLERKIHYRQQDLVDYSPVSEKHLADGMTVGELCAAAITMSDNSAANLLLATVGGPAGLTAFLRQIGDNVTRLDRWETELNEALPGDARDTTTPASMAATLRKLLTSQRLSARSQRQLLQWMVDDRVAGPLIRSVLPAGWFIADKTGAGERGARGIVALLGPNNKAERIVVIYLRDTPASMAERNQQIAGIGAALIEHWQR"}}, "key": {"[1]": {"substrate": "Nc1nc(/C(=N/O)C(=O)N[C@@H]2C(=O)N3C(C(=O)O)=C(/C=C4\\CCN([C@@H]5CCNC5)C4=O)CS[C@H]23)ns1", "experiment": "(§1) Ratio of Kcat to Km of Staphylococcus aureus betalactamase PC1 assessed as drug hydrolysis by spectrophotometry"}, "[2]": {"substrate": "CC(C)(O/N=C(\\C(=O)N[C@@H]1C(=O)N2C(C(=O)[O-])=C(C[n+]3ccccc3)CS[C@H]12)c1csc(N)n1)C(=O)O", "experiment": "as §1"}, "[3]": {"substrate": "O=C(Cc1cccs1)N[C@@H]1C(=O)N2C(C(=O)[O-])=C(C[n+]3ccccc3)CS[C@H]12", "experiment": "as §1"}, "[4]": {"substrate": "CO/N=C(\\C(=O)N[C@@H]1C(=O)N2C(C(=O)[O-])=C(C[N+]3(C)CCCC3)CS[C@H]12)c1csc(N)n1", "experiment": "as §1"}, "[5]": {"substrate": "CC1(C)S[C@@H]2[C@H](NC(=O)Cc3ccccc3)C(=O)N2[C@H]1C(=O)O", "experiment": "as §1"}, "[6]": {"substrate": "Nc1nc(/C(=N/O)C(=O)N[C@@H]2C(=O)N3C(C(=O)O)=C(/C=C4\\CCN([C@@H]5CCNC5)C4=O)CS[C@H]23)ns1", "experiment": "(§2) Activity of Staphylococcus aureus betalactamase PC1 assessed as drug hydrolysis by spectrophotometry"}, "[7]": {"substrate": "CC(C)(O/N=C(\\C(=O)N[C@@H]1C(=O)N2C(C(=O)[O-])=C(C[n+]3ccccc3)CS[C@H]12)c1csc(N)n1)C(=O)O", "experiment": "as §2"}, "[8]": {"substrate": "O=C(Cc1cccs1)N[C@@H]1C(=O)N2C(C(=O)[O-])=C(C[n+]3ccccc3)CS[C@H]12", "experiment": "as §2"}, "[9]": {"substrate": "CO/N=C(\\C(=O)N[C@@H]1C(=O)N2C(C(=O)[O-])=C(C[N+]3(C)CCCC3)CS[C@H]12)c1csc(N)n1", "experiment": "as §2"}, "[10]": {"substrate": "CC1(C)S[C@@H]2[C@H](NC(=O)Cc3ccccc3)C(=O)N2[C@H]1C(=O)O", "experiment": "as §2"}, "[11]": {"substrate": "Nc1nc(/C(=N/O)C(=O)N[C@@H]2C(=O)N3C(C(=O)O)=C(/C=C4\\CCN([C@@H]5CCNC5)C4=O)CS[C@H]23)ns1", "experiment": "(§3) Ratio of Kcat to Km of Klebsiella pneumoniae SHV1 assessed as drug hydrolysis by spectrophotometry"}, "[12]": {"substrate": "O=C(Cc1cccs1)N[C@@H]1C(=O)N2C(C(=O)[O-])=C(C[n+]3ccccc3)CS[C@H]12", "experiment": "as §3"}, "[13]": {"substrate": "CO/N=C(\\C(=O)N[C@@H]1C(=O)N2C(C(=O)[O-])=C(C[N+]3(C)CCCC3)CS[C@H]12)c1csc(N)n1", "experiment": "as §3"}, "[14]": {"substrate": "CC1(C)S[C@@H]2[C@H](NC(=O)Cc3ccccc3)C(=O)N2[C@H]1C(=O)O", "experiment": "as §3"}, "[15]": {"substrate": "Nc1nc(/C(=N/O)C(=O)N[C@@H]2C(=O)N3C(C(=O)O)=C(/C=C4\\CCN([C@@H]5CCNC5)C4=O)CS[C@H]23)ns1", "experiment": "(§4) Activity of Klebsiella pneumoniae SHV1 assessed as drug hydrolysis by spectrophotometry"}, "[16]": {"substrate": "O=C(Cc1cccs1)N[C@@H]1C(=O)N2C(C(=O)[O-])=C(C[n+]3ccccc3)CS[C@H]12", "experiment": "as §4"}, "[17]": {"substrate": "CO/N=C(\\C(=O)N[C@@H]1C(=O)N2C(C(=O)[O-])=C(C[N+]3(C)CCCC3)CS[C@H]12)c1csc(N)n1", "experiment": "as §4"}, "[18]": {"substrate": "CC1(C)S[C@@H]2[C@H](NC(=O)Cc3ccccc3)C(=O)N2[C@H]1C(=O)O", "experiment": "as §4"}}}
{"protein": "B1", "values": [{"measurement": "kcat/Km", "setting": "[1]", "value": 310, "unit": "M⁻¹ s⁻¹"}, {"measurement": "kcat/Km", "setting": "[2]", "value": 12, "unit": "M⁻¹ s⁻¹"}, {"measurement": "kcat/Km", "setting": "[3]", "value": 1300, "unit": "M⁻¹ s⁻¹"}, {"measurement": "kcat/Km", "setting": "[4]", "value": 33, "unit": "M⁻¹ s⁻¹"}, {"measurement": "kcat/Km", "setting": "[5]", "value": "1.9e+07", "unit": "M⁻¹ s⁻¹"}, {"measurement": "Km", "setting": "[6]", "value": 78, "unit": "µM"}, {"measurement": "kcat", "setting": "[6]", "value": 0.024, "unit": "s⁻¹"}, {"measurement": "Km", "setting": "[7]", "value": 29, "unit": "µM"}, {"measurement": "kcat", "setting": "[7]", "value": 0.00035, "unit": "s⁻¹"}, {"measurement": "Km", "setting": "[8]", "value": 110, "unit": "µM"}, {"measurement": "kcat", "setting": "[8]", "value": 0.14, "unit": "s⁻¹"}, {"measurement": "Km", "setting": "[9]", "value": 61, "unit": "µM"}, {"measurement": "kcat", "setting": "[9]", "value": 0.002, "unit": "s⁻¹"}, {"measurement": "Km", "setting": "[10]", "value": 3.4, "unit": "µM"}, {"measurement": "kcat", "setting": "[10]", "value": 65, "unit": "s⁻¹"}]}
{"protein": "B2", "values": [{"measurement": "kcat/Km", "setting": "[11]", "value": 230000, "unit": "M⁻¹ s⁻¹"}, {"measurement": "kcat/Km", "setting": "[12]", "value": "3.1e+06", "unit": "M⁻¹ s⁻¹"}, {"measurement": "kcat/Km", "setting": "[13]", "value": 25000, "unit": "M⁻¹ s⁻¹"}, {"measurement": "kcat/Km", "setting": "[14]", "value": "8.1e+07", "unit": "M⁻¹ s⁻¹"}, {"measurement": "Km", "setting": "[15]", "value": 130, "unit": "µM"}, {"measurement": "kcat", "setting": "[15]", "value": 30, "unit": "s⁻¹"}, {"measurement": "Km", "setting": "[16]", "value": 160, "unit": "µM"}, {"measurement": "kcat", "setting": "[16]", "value": 500, "unit": "s⁻¹"}, {"measurement": "Km", "setting": "[17]", "value": 81, "unit": "µM"}, {"measurement": "kcat", "setting": "[17]", "value": 2.1, "unit": "s⁻¹"}, {"measurement": "Km", "setting": "[18]", "value": 16, "unit": "µM"}, {"measurement": "kcat", "setting": "[18]", "value": 1300, "unit": "s⁻¹"}]}
